Assay results as given in article PMC4971492, “Structural basis for misregulation of kinesin KIF21A autoinhibition by CFEOM1 disease mutations” (Scientific Reports, 2016).

Target: the molecule itself
Assay: cross-linking; cysteine (disulfide) cross-linking in COS-7 lysates, 1 h room temperature, SDS-PAGE under reducing and non-reducing conditions, anti-GFP Western blot

B1: GFP-labelled CLIP-115 (natural protein)
chain: not shown
notes: CLIP-115 (CAP-Gly domain-containing linker protein 2); Species surmised as rat; source: COS-7, transfected, in lysate; not shown: GFP (monomeric), N-terminal, kept
  stoichiometry N: 2
